Test results as given in the supplement of paper PMC10724198.
± gives the standard deviation of the averaged measurements.

Test system: Saccharomyces cerevisiae
Assay: protein stability index of tFT-peptide fusion (C-terminal peptide) (PSI (0-1 scale)); higher = more stable (slower turnover)
Conditions: genetic background: wild type; temperature: 30 C
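Further: PSI is a weighted mean of sequencing reads over stability bins, variants kept only with over 10 reads, mCherry proximal and sfGFP distal, peptide attached via GGGS linker.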

PVITPPSSTPPI
protein stability index: 0.6815 ± 0.0021

PVLANPQGHPPN
protein stability index: 0.719 ± 0.027

PVLCLRMQVLSK
protein stability index: 0.532 ± 0.032

PVLPPRSFPPSS
protein stability index: 0.697 ± 0.014

PVLSPPRPFNSL
protein stability index: 0.677 ± 0.018

PVPLPSPFPLPL
protein stability index: 0.664 ± 0.0093

PVPPPPPSLHPP
protein stability index: 0.636 ± 0.023

PVPPRPHGFPHL
protein stability index: 0.678 ± 0.023

PVRFVDGFLSPI
protein stability index: 0.713 ± 0.03

PVSPAHLRRSLL
protein stability index: 0.775 ± 0.031

PVSPPRLPRPPP
protein stability index: 0.615 ± 0.017

PVSSFHICGPIC
protein stability index: 0.71 ± 0.0098

PVSVALASGSLF
protein stability index: 0.744 ± 0.1

PVTALIASLILR
protein stability index: 0.611 ± 0.031

PVTPHESVVPSL
protein stability index: 0.686 ± 0.02

PVVSRPSNFRWV
protein stability index: 0.663 ± 0.02

PVWDGTAKLSVI
protein stability index: 0.65 ± 0.026

PVYSIARLVPGV
protein stability index: 0.693 ± 0.029

PWSFSPLPFVLL
protein stability index: 0.673 ± 0.037

PYACQYVPCITT
protein stability index: 0.5904 ± 0.004

PYPCPPRPSPPP
protein stability index: 0.76 ± 0.034

PYPLSSLSPSRP
protein stability index: 0.702 ± 0.11

PYPPSSLPLQPA
protein stability index: 0.654 ± 0.025

PYPSPLPPAPTP
protein stability index: 0.748 ± 0.015

PYQQVAESETKK
protein stability index: 0.717 ± 0.089

PYVLGRDVVVLF
protein stability index: 0.7 ± 0.06

PYWPLLLTNCQL
protein stability index: 0.734 ± 0.063

QAIEAGPPEHGY
protein stability index: 0.677 ± 0.036

QARHNMVYHEIV
protein stability index: 0.656 ± 0.029

QARQMEIRRLQT
protein stability index: 0.628 ± 0.047

QASEYNREQSGL
protein stability index: 0.6732 ± 0.00076

QCNGDEKKKLYK
protein stability index: 0.609 ± 0.022

QDECPRTTQGRV
protein stability index: 0.656 ± 0.04

QDISESLLRLLR
protein stability index: 0.7119 ± 0.0019

QDRATRPSHRTQ
protein stability index: 0.684 ± 0.03

QEGGWKRTYDII
protein stability index: 0.678 ± 0.046

QEKQDIIEDHTT
protein stability index: 0.655 ± 0.019

QEPARPTGPGQS
protein stability index: 0.628 ± 0.019

QESRRTTVEKQA
protein stability index: 0.638 ± 0.011

QFMLLRWGFAIR
protein stability index: 0.544 ± 0.024

QFTRSRSRRVRS
protein stability index: 0.6385 ± 0.0048

QFVLWPSVLGLG
protein stability index: 0.648 ± 0.054

QGDDNVVGAMNI
protein stability index: 0.628 ± 0.089

QGKNAPERTIKQ
protein stability index: 0.631 ± 0.025

QGKRQEEGERER
protein stability index: 0.68 ± 0.052

QGVLRAEAVDKG
protein stability index: 0.622 ± 0.019

QHALSAPRTILP
protein stability index: 0.654 ± 0.03

QHFAKAIVQTTT
protein stability index: 0.679 ± 0.02

QHHPRTTPHRPS
protein stability index: 0.714 ± 0.0097

QHTDNLLTHLMG
protein stability index: 0.6551 ± 0.0028

QIFPLRLTWSRR
protein stability index: 0.642 ± 0.029

QIGTVDEWTQQA
protein stability index: 0.738 ± 0.12

QIRNNKPYSPSK
protein stability index: 0.742 ± 0.0061

QKEKKKTVKTKI
protein stability index: 0.723 ± 0.09

QKKKDKKKQNRT
protein stability index: 0.666 ± 0.029

QKKKHRTTGKTT
protein stability index: 0.655 ± 0.035

QKKKKKRNDKTQ
protein stability index: 0.71 ± 0.049

QKKKKKSKQRGP
protein stability index: 0.743 ± 0.034

QKKKRTKNKNKR
protein stability index: 0.6556 ± 0.0053

QKKTNKKTTRNE
protein stability index: 0.691 ± 0.013

QKLGNNNAKDLM
protein stability index: 0.66 ± 0.062

QKLKPRKESSKN
protein stability index: 0.698 ± 0.058

QKSKSSYPESYV
protein stability index: 0.777 ± 0.062

QKTKTKKIRKKK
protein stability index: 0.7014 ± 0.0018

QLCNQHCKMISD
protein stability index: 0.662 ± 0.0082

QLRDNQNTLLQE
protein stability index: 0.7138 ± 0.006

QLYKLKNMKKKN
protein stability index: 0.675 ± 0.0085

QMKKDIKPRPGE
protein stability index: 0.704 ± 0.037

QNKTKRMQKTKA
protein stability index: 0.629 ± 0.047

QNQKKHTRQQNQ
protein stability index: 0.722 ± 0.072

QNQVERREFRFS
protein stability index: 0.701 ± 0.088

QPPPDPPPPTPS
protein stability index: 0.592 ± 0.014

QPRAKNFRNPCP
protein stability index: 0.661 ± 0.1

QPSSYPEANRQG
protein stability index: 0.671 ± 0.028

QPYTPHTAFPAQ
protein stability index: 0.696 ± 0.011

QQGKWHTRRKKY
protein stability index: 0.659 ± 0.07

QQKKPKKEKTTE
protein stability index: 0.6744 ± 0.0036

QQKYKLIQLVII
protein stability index: 0.584 ± 0.017

QQLILCLFSPFP
protein stability index: 0.655 ± 0.015

QQMSLRKNQKVK
protein stability index: 0.7 ± 0.066

QQVRHNVKRVVL
protein stability index: 0.7222 ± 0.0025

QRLQVLIGYDRR
protein stability index: 0.691 ± 0.039

QRPFKCMIKFNK
protein stability index: 0.67 ± 0.0078

QRPGKKNGSGRP
protein stability index: 0.682 ± 0.031

QSGQSELRVVPP
protein stability index: 0.72 ± 0.021

QSPPRHPSPTAS
protein stability index: 0.683 ± 0.082

QSRPRNMFRVIS
protein stability index: 0.5469 ± 0.0045

QSSGGSDSVLFG
protein stability index: 0.738 ± 0.041

QTKAGKRKEKRE
protein stability index: 0.72 ± 0.12

QTMYFLRKEKEN
protein stability index: 0.696 ± 0.063

QTNAEPPSERVT
protein stability index: 0.655 ± 0.083

QTNYSNQYKEKY
protein stability index: 0.713 ± 0.11

QTPRYRGLFSAL
protein stability index: 0.639 ± 0.038

QTRKRESPAMVT
protein stability index: 0.639 ± 0.02

QTRQPKRSDEEK
protein stability index: 0.686 ± 0.014

QTRRQKDAEHPR
protein stability index: 0.714 ± 0.023

QTSWLKKTIKRE
protein stability index: 0.678 ± 0.072

QVCSRKKCDSRK
protein stability index: 0.567 ± 0.069

QVDITASPDRTT
protein stability index: 0.745 ± 0.056

QVRPKGDPRARV
protein stability index: 0.644 ± 0.1

QVVAAGRPWGVF
protein stability index: 0.677 ± 0.011

QVVEANNPALSF
protein stability index: 0.647 ± 0.02

QWGGEGWILGGV
protein stability index: 0.698 ± 0.031

QWGRGGRHVTDI
protein stability index: 0.669 ± 0.038

QWPCPTLSLRFS
protein stability index: 0.632 ± 0.015

QWPNPEVLVRST
protein stability index: 0.70875 ± 0.00048

QYDHGSSPRRFE
protein stability index: 0.7005 ± 0.0041

QYILGLLLVPLG
protein stability index: 0.587 ± 0.032

QYSLGLGQVQVI
protein stability index: 0.662 ± 0.033

RAAATTELAARF
protein stability index: 0.697 ± 0.041

RAACALSRRGLM
protein stability index: 0.926 ± 0.1

RAAIPAHPFVSR
protein stability index: 0.676 ± 0.027

RACLKSRCIAMG
protein stability index: 0.604 ± 0.065

RACWGKSTGGEW
protein stability index: 0.723 ± 0.0083

RADLHGFPHRCP
protein stability index: 0.76 ± 0.024

RAGGSANVLAGE
protein stability index: 0.6926 ± 0.0016

RAKNRFKRQGEN
protein stability index: 0.667 ± 0.023

RAPFEGLRCRTG
protein stability index: 0.66 ± 0.033

RAPPPATLPPLQ
protein stability index: 0.661 ± 0.086

RARARSVLGRRD
protein stability index: 0.672 ± 0.0091

RAREFRSRNIGD
protein stability index: 0.74 ± 0.0058

RASPVSSFSPPS
protein stability index: 0.679 ± 0.041

RATMFFLFPMFP
protein stability index: 0.622 ± 0.024

RAVESPDKSSCE
protein stability index: 0.664 ± 0.11

RAVPLLPRVLFW
protein stability index: 0.6819 ± 0.0047

RCACLSCSFLLQ
protein stability index: 0.679 ± 0.017

RCALATTNHPRS
protein stability index: 0.718 ± 0.056

RCHIPGRIVKTR
protein stability index: 0.628 ± 0.046

RCKYLPSSRGMI
protein stability index: 0.675 ± 0.011

RCLSVLGLFVGW
protein stability index: 0.634 ± 0.033

RCNFHILEIRKY
protein stability index: 0.667 ± 0.0057

RCRGSSWLLLCA
protein stability index: 0.518 ± 0.016

RCRRTTFIELKL
protein stability index: 0.595 ± 0.048

RCSYIGSAGSFF
protein stability index: 0.732 ± 0.024

RCTLPLSPSCSR
protein stability index: 0.6604 ± 0.0037

RCVLWSVLSTQV
protein stability index: 0.672 ± 0.042

RDECLRVLAPLR
protein stability index: 0.726 ± 0.024

RDFCLGFANTVC
protein stability index: 0.642 ± 0.028

RDKAVAGKKGGS
protein stability index: 0.682 ± 0.017

RDKIRMIDSYLT
protein stability index: 0.696 ± 0.025

RDLLPPLYLPSH
protein stability index: 0.711 ± 0.039

RDPWESLDRCYP
protein stability index: 0.698 ± 0.034

RDTAPPPPPALL
protein stability index: 0.788 ± 0.08

REGSIISYPASG
protein stability index: 0.6989 ± 0.0019

RENGKIIKKRKK
protein stability index: 0.694 ± 0.026

RERVQYICYERR
protein stability index: 0.695 ± 0.086
